The values below come from patent publication US20210054088A1.

In general, EC50 refers to the concentration giving half of the maximal effect. High values mean lower potency in that assay, low ones higher potency in that assay.

One assay addresses FcγRI (UniProt P12314). Put plainly: MSD assay, Fcγ receptor coated.
In another assay the target is FcγRIIIa(F) (UniProt P08637). Put plainly: MSD assay, Fcγ receptor coated.
In a further assay the target is FcγRIIIa(V) (UniProt P08637). Put plainly: MSD assay, Fcγ receptor coated.
FcγRIIIa(V), sequence (P08637 17-208 F176V limits assumed): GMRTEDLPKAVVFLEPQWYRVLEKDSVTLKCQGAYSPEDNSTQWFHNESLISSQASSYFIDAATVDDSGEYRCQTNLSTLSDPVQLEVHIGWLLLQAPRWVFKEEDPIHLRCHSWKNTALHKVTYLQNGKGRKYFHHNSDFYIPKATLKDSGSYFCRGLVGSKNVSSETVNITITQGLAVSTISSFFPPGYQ
A further assay concerns the target FcγRIIa(H) (UniProt P12318). Put plainly: MSD assay, Fcγ receptor coated.
Another assay addresses FcγRIIb (UniProt P31994). Put plainly: MSD assay, Fcγ receptor coated.
Another assay deals with Human C1q (human) (UniProt P02745). The experiment in a line: ELISA, antibody coated, human C1q added.
Human C1q (human), sequence (P02745 23-245 limits assumed, chain 1 of 3): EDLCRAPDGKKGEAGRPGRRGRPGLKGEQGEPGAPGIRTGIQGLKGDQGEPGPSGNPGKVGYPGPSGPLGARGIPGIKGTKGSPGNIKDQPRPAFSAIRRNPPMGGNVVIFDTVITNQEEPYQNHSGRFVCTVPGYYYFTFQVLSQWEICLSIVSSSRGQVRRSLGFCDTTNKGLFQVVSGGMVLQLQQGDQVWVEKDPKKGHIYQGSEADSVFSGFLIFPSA
Human C1q (human), sequence (P02746 28-253 limits assumed, chain 2 of 3, further chain): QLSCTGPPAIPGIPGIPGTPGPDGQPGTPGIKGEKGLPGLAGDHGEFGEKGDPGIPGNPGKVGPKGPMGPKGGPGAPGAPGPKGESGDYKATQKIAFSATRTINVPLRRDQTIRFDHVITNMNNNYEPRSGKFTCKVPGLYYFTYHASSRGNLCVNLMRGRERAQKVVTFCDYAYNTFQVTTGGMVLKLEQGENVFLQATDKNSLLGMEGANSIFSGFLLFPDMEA
Human C1q (human), sequence (P02747 29-245 limits assumed, chain 3 of 3, further chain): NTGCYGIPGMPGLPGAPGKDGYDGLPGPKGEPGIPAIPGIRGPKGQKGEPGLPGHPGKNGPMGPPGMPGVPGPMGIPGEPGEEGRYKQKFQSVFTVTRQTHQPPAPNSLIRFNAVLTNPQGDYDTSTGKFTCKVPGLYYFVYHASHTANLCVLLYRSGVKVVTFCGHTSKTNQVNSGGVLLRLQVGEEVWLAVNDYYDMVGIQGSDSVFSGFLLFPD

FcγRIIIa(F), sequence (P08637 17-208 limits assumed): as the sequence (P08637 17-208 F176V limits assumed) above, with V160F counted along it
FcγRIIa(H), sequence (P12318 36-218 limits assumed): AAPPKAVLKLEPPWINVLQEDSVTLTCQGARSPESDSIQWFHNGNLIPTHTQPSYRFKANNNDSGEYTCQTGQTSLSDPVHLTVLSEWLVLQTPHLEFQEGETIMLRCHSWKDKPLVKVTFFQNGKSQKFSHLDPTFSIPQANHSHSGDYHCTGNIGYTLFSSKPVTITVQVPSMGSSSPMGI
FcγRI, sequence (P12314 16-288 limits assumed): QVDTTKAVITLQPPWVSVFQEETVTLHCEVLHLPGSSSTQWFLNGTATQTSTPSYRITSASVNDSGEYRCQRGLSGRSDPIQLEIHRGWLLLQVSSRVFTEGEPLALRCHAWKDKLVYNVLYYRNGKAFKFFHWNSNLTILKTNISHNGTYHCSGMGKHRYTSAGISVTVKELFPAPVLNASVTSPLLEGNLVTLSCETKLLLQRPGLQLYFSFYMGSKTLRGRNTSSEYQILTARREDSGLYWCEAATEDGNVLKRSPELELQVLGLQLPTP
FcγRIIb, sequence (P31994 43-217 limits assumed): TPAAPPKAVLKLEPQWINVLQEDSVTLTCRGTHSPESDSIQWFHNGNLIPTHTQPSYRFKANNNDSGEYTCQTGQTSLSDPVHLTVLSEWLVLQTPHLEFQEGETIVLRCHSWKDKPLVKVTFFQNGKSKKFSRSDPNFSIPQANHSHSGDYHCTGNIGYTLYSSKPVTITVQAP

In the case of “Positive Control IgG1 (Intact Fc receptor effector functionality) (antibody)”, the concentration giving a half-maximal response (EC50) was 0.8 nM with FcγRI; 19 nM with FcγRIIIa(F); 6.2 nM with FcγRIIIa(V); 93.7 nM in the assay with FcγRIIa(H); more than 134 nM in the assay with FcγRIIb; 8.9 nM in the assay with Human C1q (human).
